Two molecules from patent publication US20210017284A1 (ABEOME, published 2021) can be followed below.

The target in one assay is T1, human PD-L1 (human, UniProt Q9NZQ7 19-238, limits assumed).
T1 construct: also called CD274; B7-H1
Put plainly: SPR (format not described).

The target of another assay is T2, cynomolgus monkey PD-L1 (cynomolgus monkey, UniProt G7PSE7 19-238).
T2 construct: PD-L1 is implied
Description: SPR (format not described).

T1 sequence (Q9NZQ7 19-238 limits assumed): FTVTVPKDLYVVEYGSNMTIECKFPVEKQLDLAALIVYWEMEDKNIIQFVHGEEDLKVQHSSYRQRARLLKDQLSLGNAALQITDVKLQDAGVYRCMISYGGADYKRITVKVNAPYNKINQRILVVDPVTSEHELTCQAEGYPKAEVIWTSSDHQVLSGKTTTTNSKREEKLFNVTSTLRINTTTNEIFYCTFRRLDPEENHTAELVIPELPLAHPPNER
T2 sequence (G7PSE7 entry or part of it): as the sequence (Q9NZQ7 19-238 limits assumed) above, with A33T, A34S, S62N, R68Q, Q82R, F173L, T185A, T192I, H215L counted along it

B1: hABM101.11 (IgG4) (antibody, V domains shown)
VH: QVQLVQSGPEVKKPGASVKVSCKASGYTFTENSMHWVRQSHGKSLEWMGGINPNNGGTSYNQKFKGKVTMTTDKSTSTAYMELRSLTSDDTAVYYCARPYYYGYREDYFDYWGQGTTLTVSS
VL: EIVMTQSPGTLSLSPGERATLSCRASSSVSYMYWYQQKPGQAPRPLIYLTSNLASGIPDRFSGSGSGTDYTLTISRLEPEDFAVYYCQQWSSYPPTFGQGTKVEIKR
For orientation: Kd means the concentration at which binding is half-saturated. The molecule B1 gave a Kd with human PD-L1 of 0.349 nM.

B2: hABM101.11 (IgG1) (antibody, V domains shown)
VH: B1 VH
VL: B1 VL
As for B2, the values for the equilibrium dissociation constant (Kd) with human PD-L1 and in the assay with cynomolgus monkey PD-L1 were 0.374 nM and 0.579 nM, respectively.
